Experimental data as given in publication PMC12824264, “Endoglin as a BMP9 Co-Receptor in Vascular Endothelial Cells: Prodomain Displacement and TGFBRII Recruitment” (Nature communications, 2025).

B1: BMP9 growth factor domain (GFD) dimer (ligand, human, UniProt Q9UK05 320-429, looked up)
chain: SAGAGSHCQKTSLRVNFEDIGWDSWIIAPKEYEAYECKGGCFFPLADDVTPTKHAIVQTLVHLKFPTKVGKACCVPTKLSPISVLYKDDMGVPTLKYHYEGMSVAECGCR
notes: growth factor domain (GFD) of BMP9, the cut product of the proprotein; also called BMP9 GFD; source: bought: R&D Systems (BMP9 GFD); in the prodomain displacement assays released from pro:BMP9 made in HEK EBNA, purified
B2: BMP10 growth factor domain (GFD) dimer (ligand, human, UniProt O95393 317-424, looked up)
chain: NAKGNYCKRTPLYIDFKEIGWDSWIIAPPGYEAYECRGVCNYPLAEHLTPTKHAIIQALVHLKNSQKASKACCVPTKLEPISILYLDKGVVTYKFKYEGMAVSECGCR
notes: growth factor domain (GFD) of BMP10, the cut product of the proprotein; One molecule is used for the bought GFD and for the GFD freed from pro:BMP10; also called BMP10 GFD; source: bought: R&D Systems (BMP10 GFD); in the prodomain displacement assays released from pro:BMP10 made in HEK EBNA (FURIN co-transfected), purified
B3: monomeric soluble endoglin (full-length ENG extracellular domain), sENG(M) (domain or fragment, human, UniProt P17813 26-586, looked up)
chain: ETVHCDLQPVGPERGEVTYTTSQVSKGCVAQAPNAILEVHVLFLEFPTGPSQLELTLQASKQNGTWPREVLLVLSVNSSVFLHLQALGIPLHLAYNSSLVTFQEPPGVNTTELPSFPKTQILEWAAERGPITSAAELNDPQSILLRLGQAQGSLSFCMLEASQDMGRTLEWRPRTPALVRGCHLEGVAGHKEAHILRVLPGHSAGPRTVTVKVELSCAPGDLDAVLILQGPPYVSWLIDANHNMQIWTTGEYSFKIFPEKNIRGFKLPDTPQGLLGEARMLNASIVASFVELPLASIVSLHASSCGGRLQTSPAPIQTTPPKDTCSPELLMSLIQTKCADDAMTLVLKKELVAHLKCTITGLTFWDPSCEAEDRGDKFVLRSAYSSCGMQVSASMISNEAVVNILSSSSPQRKKVHCLNMDSLSFQLGLYLSPHFLQASNTIEPGQQSFVQVRVSPSVSEFLLQLDSCHLDLGPEGGTVELIQGRAAKGNCVSLLSPSPEGDPRFSFLLHFYTVPIPKTGTLSCTVALRPKTGSQDQEVHRTVFMRLNIISPDLSGCTSKG
notes: signal peptide in the construct; Expressed as a mixture of dimer and monomer; also called monomeric sENG; sENG-His; source: HEK EBNA, transfected (pCEP4), purified from conditioned medium (HisTrap excel, HiTrap Q HP, Superdex 200)
B4: dimeric soluble endoglin (full-length ENG extracellular domain), sENG(D) (domain or fragment, human, UniProt P17813 26-586, looked up)
chain: ETVHCDLQPVGPERGEVTYTTSQVSKGCVAQAPNAILEVHVLFLEFPTGPSQLELTLQASKQNGTWPREVLLVLSVNSSVFLHLQALGIPLHLAYNSSLVTFQEPPGVNTTELPSFPKTQILEWAAERGPITSAAELNDPQSILLRLGQAQGSLSFCMLEASQDMGRTLEWRPRTPALVRGCHLEGVAGHKEAHILRVLPGHSAGPRTVTVKVELSCAPGDLDAVLILQGPPYVSWLIDANHNMQIWTTGEYSFKIFPEKNIRGFKLPDTPQGLLGEARMLNASIVASFVELPLASIVSLHASSCGGRLQTSPAPIQTTPPKDTCSPELLMSLIQTKCADDAMTLVLKKELVAHLKCTITGLTFWDPSCEAEDRGDKFVLRSAYSSCGMQVSASMISNEAVVNILSSSSPQRKKVHCLNMDSLSFQLGLYLSPHFLQASNTIEPGQQSFVQVRVSPSVSEFLLQLDSCHLDLGPEGGTVELIQGRAAKGNCVSLLSPSPEGDPRFSFLLHFYTVPIPKTGTLSCTVALRPKTGSQDQEVHRTVFMRLNIISPDLSGCTSKG
notes: signal peptide in the construct; Same construct as m1; It stays a dimer on non-reducing SDS-PAGE; also called dimeric sENG; sENG-His; source: HEK EBNA, transfected (pCEP4), purified from conditioned medium (HisTrap excel, HiTrap Q HP, Superdex 200)

Legend:
Settings in all cases: both partners purified
[1] = target: B3; experiment: native gel or EMSA; pro:BMP9 or pro:BMP10 pre-mixed with sENG(D), sENG(M), BMPRII ECD or ActRIIB ECD at stated molar ratios (from 0.3:1) in TBS, 8 ul, 30 min at room temperature; 10% native PAGE at 4 C; bands cut out and re-run on non-reducing SDS-PAGE
[2] = target: B4; experiment: SEC; S200 10/300 gel filtration; sENG(M) at 6x or sENG(D) at 3x molar excess premixed with pro:BMP9 or pro:BMP10 for 30 min; fractions on non-reducing SDS-PAGE
[3] = target: B3; experiment: SEC; analytical gel filtration; pro:BMP9 or pro:BMP10 pre-mixed with 0.3-fold sENG(M) or sENG(D)
[4] = target: B4; experiment: as above
[5] = target: B2; experiment: SEC; S200 10/300 gel filtration; sENG(M) at 6x or sENG(D) at 3x molar excess premixed with pro:BMP9 or pro:BMP10 for 30 min; fractions on non-reducing SDS-PAGE
[6] = target: B1; experiment: as above
[7] = target: B2; experiment: cross-linking; sENG(M) or sENG(D) with BMP9 or BMP10; crosslinker in PBS pH 7.4-8.0, 45 min at room temperature, quenched with 40 mM Tris; non-reducing SDS-PAGE
[8] = target: B1; experiment: as above

Binder: B1
binding result [1]: binds
binding result [2]: binds

Binder: B2
binding result [3]: binds
binding result [4]: binds

Binder: B3
stoichiometry N [5]: 1 sENG(M) per GFD dimer
stoichiometry N [6]: 1 sENG(M) per GFD dimer

Binder: B4
stoichiometry N [7]: 1 sENG(D) per GFD dimer
stoichiometry N [8]: 1 sENG(D) per GFD dimer
